From PMC4238996 (PLoS Neglected Tropical Diseases, 2014)
Numbering of substitutions follows the chain as printed.

B1: MBP-tagged MupDivIVA-P (Mup012c residues 1-87, phosphorylated by co-expression with PknQ) (natural protein, M. ulcerans Agy99 (plasmid pMUM001), UniProt Q6MZ92 1-87, looked up)
chain: MSHSELLDPALPKSPFGKQGYRYDDVDVFLRLIADELQGSDLSESDIHSITFRCAAPLTRGYDTESVDRFLDRIAETIARGHGDEGQ
notes: also called phosphorylated MupDivIVA
B2: MBP-tagged MupDivIVA S43/45/49A triple mutant (natural protein)
chain: B1 chain with S43A, S45A, S49A

Molecular target: T1, M. tuberculosis Rv0020c (M. tuberculosis H37Rv, UniProt P71590 1-527)
T1 sequence: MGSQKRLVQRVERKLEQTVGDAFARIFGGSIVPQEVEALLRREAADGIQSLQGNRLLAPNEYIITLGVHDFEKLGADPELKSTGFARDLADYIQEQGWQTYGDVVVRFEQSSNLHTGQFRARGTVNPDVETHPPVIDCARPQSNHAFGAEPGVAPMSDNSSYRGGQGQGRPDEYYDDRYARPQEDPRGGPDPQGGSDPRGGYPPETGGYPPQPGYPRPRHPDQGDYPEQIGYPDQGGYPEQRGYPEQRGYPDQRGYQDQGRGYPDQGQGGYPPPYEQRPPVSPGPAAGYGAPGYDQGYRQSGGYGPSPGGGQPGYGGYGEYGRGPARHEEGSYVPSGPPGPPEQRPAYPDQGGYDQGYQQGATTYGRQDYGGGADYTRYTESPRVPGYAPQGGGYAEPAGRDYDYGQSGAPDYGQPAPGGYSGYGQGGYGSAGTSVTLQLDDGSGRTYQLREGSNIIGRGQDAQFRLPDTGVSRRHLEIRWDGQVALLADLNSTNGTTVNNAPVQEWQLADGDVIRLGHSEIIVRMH
Assay: ELISA
Details: both partners purified

Binder | binding result
B1 | binds
B2 | binds
